According to publication PMC8669218 (Acta Pharmacologica Sinica, 2021):
Positions count from the first letter of the chain named.

Target: the molecule itself
Assay: nonreducing SDS-PAGE

B1: extracellular domain of human DPP4 (residues 39-766), K122D (domain or fragment)
chain: SRKTYTLTDYLKNTYRLKLYSLRWISDHEYLYKQENNILVFNAEYGNSSVFLENSTFDEFGHSINDYSISPDGQFILLEYNYVDQWRHSYTASYDIYDLNKRQLITEERIPNNTQWVTWSPVGHKLAYVWNNDIYVKIEPNLPSYRITWTGKEDIIYNGITDWVYEEEVFSAYSALWWSPNGTFLAYAQFNDTEVPLIEYSFYSDESLQYPKTVRVPYPKAGAVNPTVKFFVVNTDSLSSVTNATSIQITAPASMLIGDHYLCDVTWATQERISLQWLRRIQNYSVMDICDYDESSGRWNCLVARQHIEMSTTGWVGRFRPSEPHFTLDGNSFYKIISNEEGYRHICYFQIDKKDCTFITKGTWEVIGIEALTSDYLYYISNEYKGMPGGRNLYKIQLSDYTKVTCLSCELNPERCQYYSVSFSKEAKYYQLRCSGPGLPLYTLHSSVNDKGLRVLEDNSALDKMLQNVQMPSKKLDFIILNETKFWYQMILPPHFDKSKKYPLLLDVYAGPCSQKADTVFRLNWATYLASTENIIVASFDGRGSGYQGDKIMHAINRRLGTFEVEDQIEAARQFSKMGFVDNKRIAIWGWSYGGYVTSMVLGSGSGVFKCGIAVAPVSRWEYYDSVYTERYMGLPTPEDNLDHYRNSTVMSRAENFKQVEYLLIHGTADDNVHFQQSAQISKALVDVGVDFQAMWYTDEDHGIASSTAHQHIYTHMSHFIKQCFSLP
modifications: glycosylated (sites not given)
binding result: binds

B2: extracellular domain of human DPP4 (residues 39-766), P257A (domain or fragment)
chain: B1 chain with D84K, P219A
modifications: glycosylated (sites not given)
binding result: binds

B3: extracellular domain of human DPP4 (residues 39-766), D243A (domain or fragment)
chain: B1 chain with D84K, D205A
modifications: glycosylated (sites not given)
binding result: binds
